Values of other authors, collected in publication PMC10170156.

Biological target: EGFR (Homo sapiens) (UniProt P00533)

Kd: 4 nM
Substance: EGF (from UniProt P01133)
